The source of these data is article PMC3322178 (Biochemistry, 2009).

For one test, the target named is ASF/SF2 (Homo sapiens) (UniProt Q07955). As to conditions: cited from earlier work.
Test [1] addresses T1, His-SRPK1(FL), full length SR protein kinase 1 (UniProt Q96SB4 1-655). Nature of the test: pull-down.
Test [2] has as its target T1, His-SRPK1(FL), full length SR protein …. Nature of the test: pull-down. This is another data set of the same source.

Substitutions are numbered along the chain they refer to. Numbers in names are those of the source. Read-outs that look alike come from different tables or passages of the source.

By Kd is commonly meant a measure of binding affinity in units of concentration. As to SRPK1 (from UniProt Q96SB4), in the test with ASF/SF2 (Homo sapiens), the equilibrium dissociation constant (Kd) was 50 nM.

B1: GST-ASF(RRM2)-Q135A (domain or fragment, human, UniProt Q07955 105-196, looked up)
chain: GGAPRGRYGPPSRRSENRVVVSGLPPSGSWADLKDHMREAGDVCYADVYRDGTGVVEFVRKEDMTYAVRKLDNTKFRSHEGETAYIRVKVDG
Take B1: the binding result in test [1] was “binds”.

B2: GST-ASF(RRM2)-W134A (domain or fragment, human, UniProt Q07955 105-196, looked up)
chain: B1 chain with W30A, A31Q
For B2, in test [1], the binding result is listed as “binds”.

B3: GST-ASFΔβ4ΔRS (residues 1-179) (domain or fragment, human, UniProt Q07955 1-179, looked up)
chain: MSGGGVIRGPAGNNDCRIYVGNLPPDIRTKDIEDVFYKYGAIRDIDLKNRRGGPPFAFVEFEDPRDAEDAVYGRDGYDYDGYRLRVEFPRSGRGTGRGGGGGGGGGAPRGRYGPPSRRSENRVVVSGLPPSGSWQDLKDHMREAGDVCYADVYRDGTGVVEFVRKEDMTYAVRKLDNTK
Turning to B3, in test [1], the binding result is listed as “binds”.

B4: GST-ASF(RRM2)-R154A (domain or fragment, human, UniProt Q07955 105-196, looked up)
chain: B1 chain with A31Q, R50A
Consider B4, for which the binding result in test [2] was “binds”.

B5: GST-ASF(RS), ASF/SF2 RS domain residues 183-248 (domain or fragment, human, UniProt Q07955 183-248, looked up)
chain: HEGETAYIRVKVDGPRSPSYGRSRSRSRSRSRSRSRSNSRSRSYSPRRSRGSPRYSPRHSRSRSRT
Consider B5, for which the binding result in test [2] is on record as “binds”.
